From patent US20170015742A1 (published 2017)
Changes are numbered by the printed parent chain.

B1: 4G8.3-LS-9E8.4 anti-VEGF-A/anti-PDGF-BB DVD-Ig (PR-1564013) (bispecific antibody, human IgG1, kappa, L234A L235A)
heavy: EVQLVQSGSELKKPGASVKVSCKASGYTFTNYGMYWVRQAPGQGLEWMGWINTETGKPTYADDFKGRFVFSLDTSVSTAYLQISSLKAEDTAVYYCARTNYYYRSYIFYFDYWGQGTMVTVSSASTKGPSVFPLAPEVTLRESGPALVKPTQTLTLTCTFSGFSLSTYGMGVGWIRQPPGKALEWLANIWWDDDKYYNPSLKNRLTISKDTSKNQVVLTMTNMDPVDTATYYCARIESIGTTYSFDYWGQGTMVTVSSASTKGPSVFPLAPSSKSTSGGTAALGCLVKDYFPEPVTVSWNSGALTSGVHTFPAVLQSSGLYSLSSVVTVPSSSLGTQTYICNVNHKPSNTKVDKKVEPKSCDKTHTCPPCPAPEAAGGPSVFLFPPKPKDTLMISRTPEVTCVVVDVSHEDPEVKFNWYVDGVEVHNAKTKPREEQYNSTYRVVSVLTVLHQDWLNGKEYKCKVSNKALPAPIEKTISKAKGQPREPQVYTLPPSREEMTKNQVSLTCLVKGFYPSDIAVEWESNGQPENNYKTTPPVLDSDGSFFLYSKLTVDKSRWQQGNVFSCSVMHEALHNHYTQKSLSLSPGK
light: DTVLTQSPATLSLSPGERATLSCRASESVSTHMHWYQQKPGQAPRLLIYGASNLESGVPARFSGSGSGTDFTLTISSLEPEDFAVYFCQQSWNDPFTFGQGTKLEIKRTVAAPEFVLTQSPGTLSLSPGERATLSCERSSGDIGDSYVSWYQQKPGQAPRLVIYADDQRPSGIPDRFSGSGSGTDFTLTISRLEPEDFAVYYCQSYDINIDIVFGGGTKVEIKGTVAAPSVFIFPPSDEQLKSGTASVVCLLNNFYPREAKVQWKVDNALQSGNSQESVTEQDSKDSTYSLSSTLTLSKADYEKHKVYACEVTHQGLSSPVTKSFNRGEC
B2: 4G8.3-GS-9E8.4 anti-VEGF-A/anti-PDGF-BB DVD-Ig (PR-1564010) (bispecific antibody, human IgG1, kappa, L234A L235A)
heavy: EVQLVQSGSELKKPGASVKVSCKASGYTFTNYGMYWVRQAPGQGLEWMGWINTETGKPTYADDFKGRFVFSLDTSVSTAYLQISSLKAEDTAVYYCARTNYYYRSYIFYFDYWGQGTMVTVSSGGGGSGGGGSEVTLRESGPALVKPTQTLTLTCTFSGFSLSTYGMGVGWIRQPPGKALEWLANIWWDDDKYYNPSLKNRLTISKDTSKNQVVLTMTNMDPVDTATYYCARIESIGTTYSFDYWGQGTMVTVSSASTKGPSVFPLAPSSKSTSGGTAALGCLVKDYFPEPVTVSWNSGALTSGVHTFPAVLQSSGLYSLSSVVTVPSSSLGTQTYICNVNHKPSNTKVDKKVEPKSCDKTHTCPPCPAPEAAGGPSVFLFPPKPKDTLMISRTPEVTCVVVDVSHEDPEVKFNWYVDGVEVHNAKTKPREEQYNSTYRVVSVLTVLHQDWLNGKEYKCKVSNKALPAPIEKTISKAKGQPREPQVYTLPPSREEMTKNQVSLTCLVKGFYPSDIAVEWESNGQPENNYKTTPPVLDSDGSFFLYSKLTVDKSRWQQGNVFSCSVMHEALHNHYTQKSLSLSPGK
light: DTVLTQSPATLSLSPGERATLSCRASESVSTHMHWYQQKPGQAPRLLIYGASNLESGVPARFSGSGSGTDFTLTISSLEPEDFAVYFCQQSWNDPFTFGQGTKLEIKRGGSGGGGSGEFVLTQSPGTLSLSPGERATLSCERSSGDIGDSYVSWYQQKPGQAPRLVIYADDQRPSGIPDRFSGSGSGTDFTLTISRLEPEDFAVYYCQSYDINIDIVFGGGTKVEIKGTVAAPSVFIFPPSDEQLKSGTASVVCLLNNFYPREAKVQWKVDNALQSGNSQESVTEQDSKDSTYSLSSTLTLSKADYEKHKVYACEVTHQGLSSPVTKSFNRGEC
B3: 4G8.3-SL-9E8.4 anti-VEGF-A/anti-PDGF-BB DVD-Ig (PR-1564012) (bispecific antibody, human IgG1, kappa, L234A L235A)
heavy: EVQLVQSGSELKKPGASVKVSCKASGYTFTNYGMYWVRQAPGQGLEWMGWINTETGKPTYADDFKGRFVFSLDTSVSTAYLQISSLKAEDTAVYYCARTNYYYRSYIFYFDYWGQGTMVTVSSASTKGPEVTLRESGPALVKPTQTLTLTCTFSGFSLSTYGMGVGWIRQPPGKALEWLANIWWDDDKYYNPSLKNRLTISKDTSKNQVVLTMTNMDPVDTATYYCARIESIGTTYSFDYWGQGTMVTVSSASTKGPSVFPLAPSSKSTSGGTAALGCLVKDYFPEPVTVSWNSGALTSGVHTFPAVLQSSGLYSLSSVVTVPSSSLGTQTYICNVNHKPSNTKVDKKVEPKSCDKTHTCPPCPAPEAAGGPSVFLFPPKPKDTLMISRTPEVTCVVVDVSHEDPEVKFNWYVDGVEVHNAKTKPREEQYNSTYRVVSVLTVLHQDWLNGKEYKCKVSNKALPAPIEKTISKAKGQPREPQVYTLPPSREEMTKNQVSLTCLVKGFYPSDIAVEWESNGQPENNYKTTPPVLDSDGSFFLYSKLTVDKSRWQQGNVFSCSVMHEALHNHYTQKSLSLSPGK
light: DTVLTQSPATLSLSPGERATLSCRASESVSTHMHWYQQKPGQAPRLLIYGASNLESGVPARFSGSGSGTDFTLTISSLEPEDFAVYFCQQSWNDPFTFGQGTKLEIKRTVAAPSVFIFPPEFVLTQSPGTLSLSPGERATLSCERSSGDIGDSYVSWYQQKPGQAPRLVIYADDQRPSGIPDRFSGSGSGTDFTLTISRLEPEDFAVYYCQSYDINIDIVFGGGTKVEIKGTVAAPSVFIFPPSDEQLKSGTASVVCLLNNFYPREAKVQWKVDNALQSGNSQESVTEQDSKDSTYSLSSTLTLSKADYEKHKVYACEVTHQGLSSPVTKSFNRGEC
B4: 4G8.3-SL-9E8.4E anti-VEGF-A/anti-PDGF-BB DVD-Ig (PR-1575834) (bispecific antibody, human IgG1, kappa, L234A L235A)
heavy: EVQLVQSGSELKKPGASVKVSCKASGYTFTNYGMYWVRQAPGQGLEWMGWINTETGKPTYADDFKGRFVFSLDTSVSTAYLQISSLKAEDTAVYYCARTNYYYRSYIFYFDYWGQGTMVTVSSASTKGPEVTLRESGPALVKPTQTLTLTCTFSGFSLSTYGMGVGWIRQPPGKALEWLANIWWDDDKYYNPSLKNRLTISKDTSKNQVVLTMTNMDPVDTATYYCARIESIGTTYSFDYWGQGTMVTVSSASTKGPSVFPLAPSSKSTSGGTAALGCLVKDYFPEPVTVSWNSGALTSGVHTFPAVLQSSGLYSLSSVVTVPSSSLGTQTYICNVNHKPSNTKVDKKVEPKSCDKTHTCPPCPAPEAAGGPSVFLFPPKPKDTLMISRTPEVTCVVVDVSHEDPEVKFNWYVDGVEVHNAKTKPREEQYNSTYRVVSVLTVLHQDWLNGKEYKCKVSNKALPAPIEKTISKAKGQPREPQVYTLPPSREEMTKNQVSLTCLVKGFYPSDIAVEWESNGQPENNYKTTPPVLDSDGSFFLYSKLTVDKSRWQQGNVFSCSVMHEALHNAYTQKSLSLSPGK
light: B3 light with D152E, G231R
B5: BDI-5G2-F9 (antibody, V domains shown)
VH: QVTLKESGPGILQPSQTLSLTCTFSGFSLSTFGMGVGWIRQPSGKGLEWLANIWWDDDKYYNPSLKNRLTISKDTSNSQAFLEITNVDTADTATYYCARISTGISSYYVMDAWGQGASVTVSS
VL: QFTLTQPKSVSGSLRSTITIPCERSSGDIGDTYVSWYQQHLGRPPINVIYGNDQRPSEVSDRFSGSIDSSSNSASLTITNLQMDDEADYFCQSYDSDIDIVFGGGTKLTVL
B6: BDI-5H1-F6 (antibody, V domains shown)
VH: B5 VH
VL: B5 VL
B7: BEW-5C3-E7 (antibody, IgG2b, V domains shown)
VH: QIQLVQSGPELKKPGESVKISCKASGYTFTNYGVYWVKQAPGQGLQYMGWINTETGKPTYADDFKGRFVFFLETSTNTAYLQINNLKNEDMATFFCARARQLDWFVYWGQGTLVTVSS
VL: DTVLTQSPALTVSPGERVSISCRARESLTTSLCWFQQKPGQQPKLLIYGASKLESGVPARFSGSGSGTDFTLTIDPVEADDTATYFCQQSWYDPPTFGGGTKLELK
notes: Rat hybridoma antibody, isotype IgG2b/kappa
B8: BEW-1E3-D6 (antibody, IgG2b, V domains shown)
VH: QIQLVQSGPELKKPGESVKISCKASGYPFTNSGMYWVKQAPGQGLQYMGWINTEAGKPTYADDFKGRFVFFLETSASTAYLQINNLKNEDMATYFCARWGYISDNSYGWFDYWGQGTLVTVSS
VL: DTVLTQSPALAVSPGERVSISCRASEGVYSYMHWYQQNPGQQPKLLIYKASNLASGVPARFSGSGSGTDFTLTIDPVEADDTATYFCHQNWNDPLTFGSGTKLEIK
notes: as for B7
B9: BEW-9E3-B9 (antibody, IgG2a, V domains shown)
VH: QIQLVQSGPELKKPGESVKISCKASGYTFTNYGMYWVKQAPGQGLQYMGWINTETGKPTYADDFKGRFVFFLETSASTAFLQINNLKNEDMATYFCARPSDYYDGFWFPYWGQGALVTVSS
VL: B8 VL with V3I, V18I, Y29N, H88Q, N90S
notes: Rat hybridoma antibody, isotype IgG2a/kappa
B10: BEW-6C2-C8 (antibody, IgG2b, V domains shown)
VH: EVQLVESGGGLVQPGSSLKLSCAASGFTFSYYGMHWIRQAPKKGLEWMALIYYDSSKMYYADSVKGRFTISRDNSKNTLYLEMNSLRSEDTAMYYCAAGGTAPVYWGQGVMVTVSS
VL: NIQLTQSPSLLSASVGDRVTLSCKGSQNIANYLAWYQQKLGEAPKLLIYNTDSLQTGIPSRFSGSGSGTDYTLTISSLQPEDVATYFCYQSNNGYTFGAGTKLELR
notes: as for B7
B11: BEW-164-C4 (antibody, IgG2b, V domains shown)
VH: QIQLVQSGPELKKPGESVKISCKASGYSFTNYGMYWVKQAPGQGLQYMGWIDTETGKPTYTDDFKGRFVFFLETSASTAYLQINNLKNEDMATYFCARWSGDTAGIRGPWFAYWGQGTLVTVSS
VL: DIRMTQSPASLSASLGETVNIECLASEDIYSDLAWYQQKPGKSPQLLIYNANDLQKGVPSRFSGSGSGTQYSLKINSLQSEDVATYFCQQYNYYPGTFGAGTKLELK
notes: Rat hybridoma antibody, isotype IgG2b/kappa; also called BEW-1B4-C4
B12: BEW-9E10-E7 (antibody, IgG2a, V domains shown)
VH: B11 VH with V5L, S28T, K57R, T61A, A104T
VL: B11 VL with K42R, D53G, K56N, S63G, Y94F
notes: as for B9
B13: BEW-10H2-B9 (antibody, IgG2b, V domains shown)
VH: QIQLVQSGPELKKPGESVKISCKASGYSFTNFGLYWVKQAPGQGLQYMGWIDTETGKPTYADDFRGRFVFFLETSASTAYLQINNLKNEDMATYFCARVYGYPSWYFDFWGPGTMVTVSS
VL: DIQMTQSPASLSTSLEEIVTITCQASQDIDNYLSWYQQKPGKSPQLLIHSATSLADGVPSRFSGSRSGTQFSLKIHRLQVEDTGIYYCLQHFFPPWTFGGGTKLELK
notes: as for B7
B14: BEW-9A8-E2 (antibody, IgG2a, V domains shown)
VH: QIQLVQSGPELKKPGESVKISCKASGYTFTNYGMYWVKQAPGQGLQYMGWINTETGKPIYADDFKGRFVFFLETSASTAYLQINNLKNEDMATFFCARVDYDGSFWFAYWGQGTLVTVSS
VL: DTVLTQSPALAVSPGERVSISCRASESVSTVIHWYQQKPGQQPKLLIHGASNLESGVPARFSGSGSGTDFTLTIDPVEADDTATYFCQQHWNDPPTFGAGTKLEMK
notes: as for B9
B15: BEW-8E6-E4 (antibody, IgG2a, V domains shown)
VH: QIQLVQSGPELKKPGESVKISCKASGYTFTDYAMHWVKQAPGKVLKWMGWINTFTGKPTYIDDFKGRFVFSLEASASTANLQISDLKNEDTATYFCARGNYYSGYWYFDFWGPGTMVTMSS
VL: DIQMTQSPASLSASLGETISIECRASEDISSNLAWYQQKSGKSPQLLIFAANRLQDGVPSRFSGSGSGTQFSLKISGMQPEDEGDYFCLQGSKFYTFGAGTKLELK
notes: as for B9

Target: recombinant murine PDGF-BB (mouse, UniProt P31240 82-190)
Test: cell-based or functional assay

recombinant murine PDGF-BB, sequence (P31240 82-190 limits assumed): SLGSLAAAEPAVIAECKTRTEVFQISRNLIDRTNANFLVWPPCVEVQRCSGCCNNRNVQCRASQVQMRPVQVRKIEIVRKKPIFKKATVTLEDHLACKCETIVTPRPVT

Potency IC50 (nM) mPDGF-BB (NIH-3T3 proliferation) | Binder
0.11 nM | B1
0.44 nM | B2
0.29 nM | B3
0.772 nM | B4

Target: recombinant rat PDGF-BB (rat, UniProt Q05028 74-182)
Test: cell-based or functional assay

recombinant rat PDGF-BB, sequence (Q05028 74-182 limits assumed): as the sequence (P31240 82-190 limits assumed) above, with I83V, I102V counted along it

Potency IC50 (nM) ratPDGF-BB (NIH-3T3 proliferation) | Binder
0.21 nM | B1
1.36 nM | B2
0.65 nM | B3

Target: T1, Human PDGF-BB (human, UniProt P01127 82-190)
T1 construct: Recombinant human PDGF-BB, a dimer of two B chains; also called huPDGF-BB; hPDGF-BB
Test: Biacore SPR (Example 1.1)
Experimental: Unreacted moieties on the biosensor surface were blocked with ethanolamine. For kinetic analysis, rate equations derived from the 1:1 Langmuir binding model were fitted simultaneously to multiple antigen injections (using global fit analysis) with the use of Scrubber 2 (BioLogic Software), Biacore Biaevaluation 4.0.1 software or Biacore T100 Evaluation software. Purified antibodies or DVD-Ig molecules were diluted in running buffer for capture across goat anti-human Fc reaction surfaces. Antibodies or DVD-Ig molecules to be captured as a ligand (1 μg/ml) were injected over reaction matrices at a flow rate of 10 μl/minute. During the assay, all measurements were referenced against the capture surface alone (i.e., with no captured antibody or DVD-Ig molecule). […] The equilibrium dissociation constant KD (M) of the reaction between antibodies and the target antigen was then calculated from the kinetic rate constants by the following formula: KD=Koff/Kₒₙ. Binding was recorded as a function of time and kinetic rate constants were calculated. In this assay, on-rates as fast as 10⁶M⁻¹s⁻¹ and off-rates as slow as 10⁻⁶ s⁻¹ could be measured.

T1 sequence (P01127 82-190 limits assumed): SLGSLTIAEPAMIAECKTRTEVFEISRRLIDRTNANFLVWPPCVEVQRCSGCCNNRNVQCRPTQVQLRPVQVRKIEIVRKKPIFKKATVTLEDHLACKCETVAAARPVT

Kd | kon | Binder
≤ 0.0001 nM | ≥ 1e+07 M⁻¹ s⁻¹ | B5
≤ 0.0001 nM | ≥ 1e+07 M⁻¹ s⁻¹ | B6

Target: T2, Human VEGF-A 165 (human, UniProt P15692 207-395)
T2 construct: Recombinant; also called huVEGF-A165; hVEGF165
Test: receptor competition ELISA, hVEGF165 binding to coated hVEGF-R2-Fc
Experimental: To identify molecules that could block the binding of hVEGF₁₆₅ to the hVEGF-R2 (KDR/Flk-1) receptor, a competition ELISA was performed. […] Plates were then washed four times with wash buffer (TBS, 0.05% Tween-20) and blocked with Superblock blocking buffer (Thermo Scientific, cat#37535). […] The pre-incubated sample/hVEGF₁₆₅ complex was added to the coated plate at 50 μL in duplicate and incubated for 30 minutes at 25° C. with shaking. Following incubation, plates were washed four times with wash buffer. Streptavidin-polyHRP-40 (Fitzgerald cal#65r-s104phrp) was diluted in assay diluent (10% Superblock containing 0.05% surfactamps) and added to plates (50 μL) for 45 minutes at 25° C. with shaking. Plates were washed four times with wash buffer and developed with the addition of Enhanced K-blue TMB substrate (Neogen cat#308177). The reaction was stopped with 2N sulfuric acid (VWR, cat# BDH3500-1) and the absorbance was read at 450 nm-570 nm. A decrease in observed optical density indicates the test molecule is blocking the hVEGF₁₆₅ binding to the hVEGF-R2-Fc. Data was analyzed using Softmax Pro 4.8 software and IC₅₀ values calculated using a sigmoidal dose response (variable slope) fit in GraphPad Prism 5.
Anti-VEGF-A antibodies derived from rat hybridomas were characterized for binding, function and cross-reactivity in a panel of assays. Supernatants were tested for the ability to bind hVEGF₁₆₅ (Example 1.3) and block binding of hVEGF₁₆₅ to hVEGFR2 in a competition ELISA format (Example 1.4).

T2 sequence (P15692 other isoform, or with tags, fused parts or gaps limits assumed): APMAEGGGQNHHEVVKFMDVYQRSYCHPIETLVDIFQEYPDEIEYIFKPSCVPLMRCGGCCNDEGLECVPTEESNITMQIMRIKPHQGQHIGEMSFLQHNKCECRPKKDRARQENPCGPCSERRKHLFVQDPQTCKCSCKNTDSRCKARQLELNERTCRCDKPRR

IC50 | Binder
0.156 nM | B7
0.62 nM | B8
0.124 nM | B9
0.197 nM | B10
0.18 nM | B11
0.274 nM | B12
0.42 nM | B13
0.249 nM | B14
0.342 nM | B15
